Reference: PMC9225624 (Autophagy, 2021)
Like-named read-outs stand apart in the source and are kept apart here.

Assays:
[1] = target: T1, GST-ATG8f (Arabidopsis thaliana, UniProt Q8VYK7 1-117); experiment: pull-down
T1 sequence (looked up): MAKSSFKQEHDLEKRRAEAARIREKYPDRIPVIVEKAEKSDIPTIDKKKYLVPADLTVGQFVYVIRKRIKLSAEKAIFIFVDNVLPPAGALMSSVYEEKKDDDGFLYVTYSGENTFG

[2] = target: T2, Arabidopsis ATG8f (tag-free) (Arabidopsis thaliana, UniProt Q8VYK7 1-117); experiment: SEC
T2 sequence: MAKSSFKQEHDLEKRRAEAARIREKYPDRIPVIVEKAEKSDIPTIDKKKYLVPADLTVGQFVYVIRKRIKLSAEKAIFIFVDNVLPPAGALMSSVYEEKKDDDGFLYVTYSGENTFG

[3] = target: T3, GST-ATG8b (Arabidopsis thaliana, UniProt Q9XEB5 1-117); experiment: pull-down
T3 sequence (looked up): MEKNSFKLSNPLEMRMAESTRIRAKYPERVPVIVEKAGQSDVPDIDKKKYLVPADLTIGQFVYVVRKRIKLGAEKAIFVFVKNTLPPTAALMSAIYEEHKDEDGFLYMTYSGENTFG

[4] = target: T4, GST-ATG8a (Arabidopsis thaliana, UniProt Q8LEM4 1-117); experiment: pull-down
T4 sequence (looked up): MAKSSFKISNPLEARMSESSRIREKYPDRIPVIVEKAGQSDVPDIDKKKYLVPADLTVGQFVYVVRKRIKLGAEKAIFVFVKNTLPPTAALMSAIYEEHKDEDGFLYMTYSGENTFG

[5] = target: T5, GST-ATG8c (Arabidopsis thaliana, UniProt Q8S927 1-119); experiment: pull-down
T5 sequence (looked up): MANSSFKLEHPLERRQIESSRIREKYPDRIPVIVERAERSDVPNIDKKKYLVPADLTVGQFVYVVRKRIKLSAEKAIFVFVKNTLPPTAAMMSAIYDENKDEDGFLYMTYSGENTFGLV

[6] = target: T1, GST-ATG8f; experiment: pull-down; remark: listed apart in the source
[7] = target: T6, GST-ATG8h (Arabidopsis thaliana, UniProt Q8S925 1-119); experiment: pull-down
T6 sequence (looked up): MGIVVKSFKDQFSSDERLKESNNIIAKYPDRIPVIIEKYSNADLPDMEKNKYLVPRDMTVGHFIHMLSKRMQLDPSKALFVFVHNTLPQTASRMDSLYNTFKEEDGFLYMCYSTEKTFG

[8] = target: T7, GST-ATG8d (Arabidopsis thaliana, UniProt Q9SL04 1-120); experiment: pull-down
T7 sequence (looked up): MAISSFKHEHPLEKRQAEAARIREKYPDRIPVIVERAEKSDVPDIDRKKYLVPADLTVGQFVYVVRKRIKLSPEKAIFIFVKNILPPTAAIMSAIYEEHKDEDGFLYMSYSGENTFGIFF

[9] = target: T8, GST-ATG8g (Arabidopsis thaliana, UniProt Q9LZZ9 1-117); experiment: pull-down
T8 sequence (looked up): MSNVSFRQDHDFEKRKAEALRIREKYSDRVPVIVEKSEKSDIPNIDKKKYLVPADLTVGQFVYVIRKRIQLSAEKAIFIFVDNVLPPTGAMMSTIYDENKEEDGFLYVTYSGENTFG

[10] = target: T9, GST-ATG8i (Arabidopsis thaliana, UniProt Q9LRP7 1-115); experiment: pull-down
T9 sequence (looked up): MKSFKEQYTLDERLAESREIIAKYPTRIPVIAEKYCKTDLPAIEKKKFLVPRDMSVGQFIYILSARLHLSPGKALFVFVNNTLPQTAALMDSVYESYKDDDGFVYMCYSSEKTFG

[11] = target: T10, GST-ATG8e (Arabidopsis thaliana, UniProt Q8S926 1-118); experiment: pull-down
T10 sequence (looked up): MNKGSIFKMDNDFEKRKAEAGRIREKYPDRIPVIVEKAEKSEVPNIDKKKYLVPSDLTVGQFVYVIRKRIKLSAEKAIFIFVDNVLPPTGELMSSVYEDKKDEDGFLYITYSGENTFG

[12] = target: T11, GST-ATG8f (Y26E R29E) (Arabidopsis thaliana, UniProt Q8VYK7 1-117, Y26E | R29E); experiment: pull-down
T11 sequence (looked up): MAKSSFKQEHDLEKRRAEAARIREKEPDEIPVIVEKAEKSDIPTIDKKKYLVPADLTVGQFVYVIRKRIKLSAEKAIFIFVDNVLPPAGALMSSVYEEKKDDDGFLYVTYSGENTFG

[13] = target: T12, GST-ATG8f R29E (Arabidopsis thaliana, UniProt Q8VYK7 1-117, R29E); experiment: pull-down
T12 sequence (looked up): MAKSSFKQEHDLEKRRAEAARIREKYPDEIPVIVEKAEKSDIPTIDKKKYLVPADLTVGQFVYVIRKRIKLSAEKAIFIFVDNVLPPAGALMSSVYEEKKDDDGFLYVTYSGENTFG

[14] = target: T13, GST-ATG8f K47E (Arabidopsis thaliana, UniProt Q8VYK7 1-117, K47E); experiment: pull-down
T13 sequence (looked up): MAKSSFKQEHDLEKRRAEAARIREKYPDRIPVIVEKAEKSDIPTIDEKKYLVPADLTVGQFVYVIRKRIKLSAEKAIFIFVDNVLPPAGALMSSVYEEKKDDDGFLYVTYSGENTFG

[15] = target: T14, GST-ATG8f Y26E (Arabidopsis thaliana, UniProt Q8VYK7 1-117, Y26E); experiment: pull-down
T14 sequence (looked up): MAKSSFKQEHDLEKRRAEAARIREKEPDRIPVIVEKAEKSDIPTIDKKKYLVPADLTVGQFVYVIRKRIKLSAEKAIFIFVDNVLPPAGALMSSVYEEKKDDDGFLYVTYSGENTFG

[16] = target: T2, Arabidopsis ATG8f (tag-free); experiment: pull-down

Measured: binding result

B1: UBA domain (619-704 aa) of NBR1 (domain or fragment, Arabidopsis thaliana, UniProt Q9SB64 619-704, looked up)
chain: EITMLKELEEMGFKEIDLNKEILRDNEYNLEQSVDALCGVSEWDPILEELQEMGFCDDVTNKRLLKKNNGSIKGVVMDLLTGEKEA
binds: [1] | [2]

B2: SH3 domain of SH3P2, SH3P2 (279-368) (domain or fragment, Arabidopsis thaliana, UniProt Q8VWF1 279-368, looked up)
chain: SYEEANGVFASQMHDTSTDSMGYFLGEVLFPYHGVTDVELSLSTGEYVVVRKVTGSGWAEGECKGKAGWFPYGYIERRERVLASKVSEVF
not listed: [1] | [16]
binds: all other assays above

GVSEWDPILEE [NBR1 AIM peptide (657-667 aa)]
binds: [16]
